{"source": "paper PMC12098889", "about": "“Structural insight into PIF6-mediated red light signal transduction of plant phytochrome B” (Cell Discovery, 2025)", "binders": {"B1": {"name": "phytochrome B (phyB), full length (1‒1172) (receptor, Arabidopsis, UniProt P14713 1-1172, looked up)", "chain": "MVSGVGGSGGGRGGGRGGEEEPSSSHTPNNRRGGEQAQSSGTKSLRPRSNTESMSKAIQQYTVDARLHAVFEQSGESGKSFDYSQSLKTTTYGSSVPEQQITAYLSRIQRGGYIQPFGCMIAVDESSFRIIGYSENAREMLGIMPQSVPTLEKPEILAMGTDVRSLFTSSSSILLERAFVAREITLLNPVWIHSKNTGKPFYAILHRIDVGVVIDLEPARTEDPALSIAGAVQSQKLAVRAISQLQALPGGDIKLLCDTVVESVRDLTGYDRVMVYKFHEDEHGEVVAESKRDDLEPYIGLHYPATDIPQASRFLFKQNRVRMIVDCNATPVLVVQDDRLTQSMCLVGSTLRAPHGCHSQYMANMGSIASLAMAVIINGNEDDGSNVASGRSSMRLWGLVVCHHTSSRCIPFPLRYACEFLMQAFGLQLNMELQLALQMSEKRVLRTQTLLCDMLLRDSPAGIVTQSPSIMDLVKCDGAAFLYHGKYYPLGVAPSEVQIKDVVEWLLANHADSTGLSTDSLGDAGYPGAAALGDAVCGMAVAYITKRDFLFWFRSHTAKEIKWGGAKHHPEDKDDGQRMHPRSSFQAFLEVVKSRSQPWETAEMDAIHSLQLILRDSFKESEAAMNSKVVDGVVQPCRDMAGEQGIDELGAVAREMVRLIETATVPIFAVDAGGCINGWNAKIAELTGLSVEEAMGKSLVSDLIYKENEATVNKLLSRALRGDEEKNVEVKLKTFSPELQGKAVFVVVNACSSKDYLNNIVGVCFVGQDVTSQKIVMDKFINIQGDYKAIVHSPNPLIPPIFAADENTCCLEWNMAMEKLTGWSRSEVIGKMIVGEVFGSCCMLKGPDALTKFMIVLHNAIGGQDTDKFPFPFFDRNGKFVQALLTANKRVSLEGKVIGAFCFLQIPSPELQQALAVQRRQDTECFTKAKELAYICQVIKNPLSGMRFANSLLEATDLNEDQKQLLETSVSCEKQISRIVGDMDLESIEDGSFVLKREEFFLGSVINAIVSQAMFLLRDRGLQLIRDIPEEIKSIEVFGDQIRIQQLLAEFLLSIIRYAPSQEWVEIHLSQLSKQMADGFAAIRTEFRMACPGEGLPPELVRDMFHSSRWTSPEGLGLSVCRKILKLMNGEVQYIRESERSYFLIILELPVPRKRPLSTASGSGDMMLMMPY", "modifications": "PΦB chromophore covalently linked to C357", "notes": "Arabidopsis phytochrome B, residues 1-1172, At2g18790; The same protein is Pr in the dark and Pfr after red light; The purification uses Ni-NTA, but no His tag on phyB is described; also called wild-type phyB; phyB-Pr (dark); source: E. coli BL21(DE3), co-expressed with HO1 and HY2, purified (Ni-NTA, anti-FLAG resin, Source Q); not shown: 3× Flag ([residues removed]), N-terminal, kept"}, "B2": {"name": "phyB^Y276H, full length (receptor, Arabidopsis, UniProt P14713 1-1172, looked up)", "chain": "B1 chain with Y276H", "modifications": "PΦB chromophore covalently bound", "notes": "Arabidopsis phytochrome B, residues 1-1172, At2g18790, with Y276H; also called constitutively active mutant phyB^Y276H; source: E. coli BL21(DE3), co-expressed with HO1 and HY2, purified (Ni-NTA, anti-FLAG resin, Source Q); not shown: 3× Flag ([residues removed]), N-terminal, kept"}, "B3": {"name": "PIF6αΔC (1‒247) (domain or fragment, Arabidopsis, UniProt Q8L5W7 1-247, looked up)", "chain": "MMFLPTDYCCRLSDQEYMELVFENGQILAKGQRSNVSLHNQRTKSIMDLYEAEYNEDFMKSIIHGGGGAITNLGDTQVVPQSHVAAAHETNMLESNKHVDDSETLKASSSKRMMVDYHNRKKIKFIPPDEQSVVADRSFKLGFDTSSVGFTEDSEGSMYLSSSLDDESDDARPQVPARTRKALVKRKRNAEAYNSPERNQRNDINKKMRTLQNLLPNSHKDDNESMLDEAINYMTNLQLQVQMMTMG", "notes": "Arabidopsis PIF6α, residues 1-247; also called PIF6ΔC; C-terminus-truncated PIF6α; source: E. coli BL21(DE3), purified (Ni-NTA, Strep-Tactin, Source Q); not shown: StrepII, C-terminal, kept"}, "B4": {"name": "PIF6N (1‒64) (domain or fragment, Arabidopsis, UniProt Q8L5W7 1-64, looked up)", "chain": "MMFLPTDYCCRLSDQEYMELVFENGQILAKGQRSNVSLHNQRTKSIMDLYEAEYNEDFMKSIIH", "notes": "Arabidopsis PIF6, residues 1-64 (methods of the pull-down); the legends call PIF6N residues 1-60 and the results R11-S60; Probably in the modified pET15b vector (N-terminal His6, C-terminal StrepII) like the other PIFNs; also called N-terminus of PIF6β; source: E. coli BL21(DE3), purified"}}, "key": {"[1]": {"target": "the molecule itself", "experiment": "cryo-EM structure; phyB and PIF6β mixed ~1:1.5, on ice under red light (665 nm, 800 μmol m^-2 s^-1), SEC in 25 mM HEPES pH 7.8, 250 mM KCl, 10 mM DTT, 1 mM EDTA; irradiated with red light 20 min before freezing"}, "[2]": {"target": "PIF6β (1‒182) (Arabidopsis)", "experiment": "cryo-EM structure; phyB^Y276H or phyBN^Y276H mixed with PIF6β ~1:1.5; full-length complex prepared in the dark; SEC on Superose 6 Increase before freezing"}, "[3]": {"target": "the molecule itself", "experiment": "cryo-EM structure; phyB^Y276H or phyBN^Y276H mixed with PIF6β ~1:1.5; full-length complex prepared in the dark; SEC on Superose 6 Increase before freezing"}, "[4]": {"target": "B1", "experiment": "pull-down; StrepII-tagged PIF6 forms or PIFNs held on Strep-Tactin Sepharose, 3× Flag-phyB in the mixture; red light (665 nm, 800 μmol m^-2 s^-1), 4 °C, 2 h; buffer E (100 mM Tris-HCl pH 8.0, 150 mM NaCl, 1 mM EDTA); eluted with D-desthiobiotin; SDS-PAGE with Coomassie and zinc-induced fluorescence", "conditions": "both partners purified"}, "phyB^Y276H, full length": {"target": "B2", "experiment": "pull-down; StrepII-tagged PIF6 forms or PIFNs held on Strep-Tactin Sepharose, 3× Flag-phyB or phyB^Y276H in the mixture; in the dark, 4 °C, 2 h; buffer E (100 mM Tris-HCl pH 8.0, 150 mM NaCl, 1 mM EDTA); SDS-PAGE with Coomassie and zinc-induced fluorescence", "conditions": "both partners purified"}, "[5]": {"target": "B1", "experiment": "SEC; Superose 6 Increase 10/300 GL; 25 mM Tris-HCl pH 8.0, 150 mM NaCl, 5 mM DTT; red light-irradiated phyB; peak fractions on SDS-PAGE", "conditions": "both partners purified"}, "[6]": {"target": "T1, phyBN (residues 1‒908 of phyB) (Arabidopsis, UniProt P14713 1-908, PΦB chromophore covalently bound)", "T1 construct": "Arabidopsis phytochrome B, residues 1-908 (HKRD truncated); also called phyBN-Pfr (red light-irradiated); source: E. coli BL21(DE3), co-expressed with HO1 and HY2, purified; not shown: 3× Flag, N-terminal, kept", "T1 sequence (looked up)": "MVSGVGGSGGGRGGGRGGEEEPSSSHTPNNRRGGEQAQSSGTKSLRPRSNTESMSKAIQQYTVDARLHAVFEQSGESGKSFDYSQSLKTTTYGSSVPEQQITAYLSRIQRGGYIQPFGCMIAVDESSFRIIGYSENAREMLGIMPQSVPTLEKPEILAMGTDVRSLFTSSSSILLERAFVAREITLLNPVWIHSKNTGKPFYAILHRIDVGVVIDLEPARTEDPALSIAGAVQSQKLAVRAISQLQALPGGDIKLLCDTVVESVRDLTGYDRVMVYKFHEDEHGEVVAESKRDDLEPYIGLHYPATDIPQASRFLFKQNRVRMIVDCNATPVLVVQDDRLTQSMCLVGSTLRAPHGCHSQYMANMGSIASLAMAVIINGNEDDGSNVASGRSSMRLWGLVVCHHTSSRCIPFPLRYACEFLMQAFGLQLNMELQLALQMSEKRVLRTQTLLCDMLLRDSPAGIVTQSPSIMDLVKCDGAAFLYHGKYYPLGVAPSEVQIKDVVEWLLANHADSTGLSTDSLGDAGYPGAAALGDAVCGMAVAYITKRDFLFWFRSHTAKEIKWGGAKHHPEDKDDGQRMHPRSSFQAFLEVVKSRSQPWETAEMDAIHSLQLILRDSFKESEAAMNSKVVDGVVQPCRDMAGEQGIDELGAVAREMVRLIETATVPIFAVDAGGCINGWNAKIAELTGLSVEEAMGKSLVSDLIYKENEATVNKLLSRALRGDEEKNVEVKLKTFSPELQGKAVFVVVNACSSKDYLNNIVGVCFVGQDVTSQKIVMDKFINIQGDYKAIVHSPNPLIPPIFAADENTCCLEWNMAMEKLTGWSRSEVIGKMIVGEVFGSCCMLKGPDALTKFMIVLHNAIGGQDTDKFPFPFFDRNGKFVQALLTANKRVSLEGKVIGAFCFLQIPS", "experiment": "pull-down; StrepII-tagged PIF6N (1-64) and its mutants used to pull down Flag-tagged phyBN (Pfr) and its site-directed mutants; SDS-PAGE with Coomassie and zinc-induced fluorescence", "conditions": "both partners purified"}}, "note": "Positions count from the first letter of the chain named. Names and notes keep the numbering of the source."}
{"binder": "B1", "values": [{"measurement": "binding result", "setting": "[1]", "result": "binds"}]}
{"binder": "B2", "values": [{"measurement": "stoichiometry N (phyB per PIF6β)", "setting": "[2]", "result": 2}, {"measurement": "binding result", "setting": "[3]", "result": "binds"}]}
{"binder": "B3", "values": [{"measurement": "binding result", "setting": "[4]", "result": "binds"}, {"measurement": "binding result", "setting": "phyB^Y276H, full length", "result": "binds"}]}
{"binder": "B4", "values": [{"measurement": "binding result", "setting": "[5]", "result": "binds"}, {"measurement": "binding result", "setting": "[6]", "result": "binds"}]}
